The values that follow come from article PMC5719400, “Engineering an aldehyde dehydrogenase toward its substrates, 3-hydroxypropanal and NAD^+, for enhancing the production of 3-hydroxypropionic acid” (Scientific Reports, 2017).

Substitutions are numbered along the chain they refer to. Numbers in names are those of the source.

Experiment in all cases: purified protein
What all share (assay type): biochemical, Azospirillum brasilense

Substrate in data set [1]: NC(=O)c1ccc[n+]([C@@H]2O[C@H](COP(=O)(O)OP(=O)(O)OC[C@H]3O[C@@H](n4cnc5c(N)ncnc54)[C@H](O)[C@@H]3O)[C@@H](O)[C@H]2O)c1
The following applies: 3 mM 3-HPA, 100 mM phosphate pH 8, 25 °C, varied: cofactor. The source says:
(§1) (α-ketoglutaric semialdehyde dehydrogenase)

Substrate in data set [2]: O=CCCO
The following applies: 2 mM NAD+, 100 mM phosphate pH 8, 25 °C.
Text: as §1

Substrate in data set [3]: NC(=O)c1ccc[n+]([C@@H]2O[C@H](COP(=O)(O)OP(=O)(O)OC[C@H]3O[C@@H](n4cnc5c(N)ncnc54)[C@H](OP(=O)(O)O)[C@@H]3O)[C@@H](O)[C@H]2O)c1
To be noted: 3 mM 3-HPA, 100 mM phosphate pH 8, 25 °C, varied: cofactor.
Text: as §1

B1: KGSADH (α-ketoglutaric semialdehyde dehydrogenase) (Azospirillum brasilense; A337R/A442P/P444T/R334Q) (protein)
chain: ANVTYTDTQLLIDGEWVDAASGKTIDVVNPATGKPIGRVAHAGIADLDRALAAAQSGFEAWRKVPAHERAATMRKAAALVRERADAIAQLMTQEQGKPLTEARVEVLSAADIIEWFADEGRRVYGRIVPPRNLGAQQTVVKEPVGPVAAFTPWNFPVNQVVRKLSAALATGCSFLVKAPEETPASPAALLRAFVDAGVPAGVIGLVYGDPAEISSYLIPHPVIRKVTFTGSTPVGKQLASLAGLHMKRATMELGGHAPVIVAEDADVALAVKAAGGAKFRNAGQVCISPTRFLVHNSIRDEFTRALVKHAEGLKVGNGLEEGTTLGALANPRQLTRMASVIDNARKVGASIETGGERIGSEGNFFAPTVIANVPLDADVFNNEPFGPVAAIRGFDKLEEAIAEANRLPFGLAGYAFTRSFANVHLLTQRLEVGMLWINQPPTTWPEMPFGGVKDSGYGSEGGPEALEPYLVTKSVTVMAV
notes: N-terminal His6-tag (pQE80L), expressed in E. coli DH10β, Ni-NTA purified; catalytic residues E253 and C287
As a reminder, the kcat is the number of substrate molecules converted per active site and unit of time at saturation. In general, kcat/Km refers to the turnover number divided by the Michaelis constant. In the case of B1, in “purified protein [1]” (variant 106-QR), the Km is 0.025(±0.0045) mM, the kcat amounted to 4.8 ± 0.93 s⁻¹ and the kcat/Km was determined as 192000 ± 72500 M⁻¹ s⁻¹. For the same protein, in “purified protein [2]” (variant 106-QR), the Km is on record as 0.29(±0.062) mM, the kcat is 5 ± 1.2 s⁻¹ and the kcat/Km worked out at 17000 ± 7800 M⁻¹ s⁻¹.

B2: KGSADH (α-ketoglutaric semialdehyde dehydrogenase) (Azospirillum brasilense; A110S/A337R/A442P/K273A/P444T/R334Q) (protein)
chain: B1 chain with A109S, K272A
notes: as for B1
Consider B2, for which, in the data set “purified protein [1]” (variant 104-QR), the Km was 0.033(±0.0089) mM, the kcat turned out to be 5.9 ± 0.61 s⁻¹ and the kcat/Km worked out at 179000 ± 66700 M⁻¹ s⁻¹. Further, in “purified protein [2]” (variant 104-QR), the Km is reported as 0.43(±0.094) mM, the kcat was 6.7 ± 0.64 s⁻¹ and the kcat/Km was 16000 ± 4900 M⁻¹ s⁻¹.

B3: KGSADH (α-ketoglutaric semialdehyde dehydrogenase) (Azospirillum brasilense) (protein)
chain: B1 chain with Q333R, R336A, P441A, T443P
notes: as for B1
As to B3, in the data set “purified protein [1]”, the Km is recorded as 0.21(±0.018) mM, the kcat worked out at 12 ± 1.7 s⁻¹ and the kcat/Km was determined as 57000 ± 13000 M⁻¹ s⁻¹. Further, in “purified protein [3]”, the Km is 2.3(±0.033) mM, the kcat was 8.6 ± 0.84 s⁻¹ and the kcat/Km amounted to 3700 ± 420 M⁻¹ s⁻¹. Besides, in the data set “purified protein [2]”, the Km is 1.6(±0.14) mM, the kcat was found to be 15 ± 2.1 s⁻¹ and the specificity constant (kcat/Km) worked out at 9000 ± 2100 M⁻¹ s⁻¹.

B4: KGSADH (α-ketoglutaric semialdehyde dehydrogenase) (Azospirillum brasilense; A337R/R334Q) (protein)
chain: B1 chain with P441A, T443P
notes: as for B1
With B4, in the data set “purified protein [1]” (variant WT-QR), the Km is given as 0.044(±0.0033) mM, the kcat came out at 7.9 ± 0.75 s⁻¹ and the kcat/Km was found to be 180000 ± 30500 M⁻¹ s⁻¹. In the data set “purified protein [3]” (variant WT-QR), the Km was 0.81(±0.15) mM, the kcat stood at 4.4 ± 1.4 s⁻¹ and the kcat/Km was 5400 ± 2700 M⁻¹ s⁻¹. Further, in “purified protein [2]” (variant WT-QR), the Km is 0.55(±0.13) mM, the kcat stood at 6.8 ± 0.35 s⁻¹ and the kcat/Km was determined as 12000 ± 3600 M⁻¹ s⁻¹.

B5: KGSADH (α-ketoglutaric semialdehyde dehydrogenase) (Azospirillum brasilense; A337R/A442P/K273A/P444A/R334Q/T443E) (protein)
chain: B1 chain with K272A, T442E, T443A
notes: as for B1
Turning to B5, in “purified protein [1]” (variant 108-QR), the Km is recorded as 0.037(±0.0024) mM, the kcat is 6.1 ± 0.64 s⁻¹ and the kcat/Km was determined as 165000 ± 28000 M⁻¹ s⁻¹. Further, in “purified protein [3]” (variant 108-QR), the Km is given as 0.66(±0.065) mM, the kcat was determined as 4.5 ± 1.1 s⁻¹ and the kcat/Km was determined as 6900 ± 2300 M⁻¹ s⁻¹. Moreover, in “purified protein [2]” (variant 108-QR), the Km is on record as 0.17(±0.032) mM, the kcat is 6 ± 1.3 s⁻¹ and the kcat/Km came out at 35000 ± 14000 M⁻¹ s⁻¹.
